This note sets out measurements from patent US20220017620A1 (SHANGHAI FUDAN ZHANGJIANG BIO PHARMACEUTICAL, published 2022).

The target in experiment [1] is T1, 4Ig B7-H3 (soluble human B7-H3 protein with 435 amino acids) (human, UniProt Q5ZPR3 27-461, limits assumed).
T1 construct: also called 4Ig-B7H3 antigen; B7H3/4Ig
T1 sequence: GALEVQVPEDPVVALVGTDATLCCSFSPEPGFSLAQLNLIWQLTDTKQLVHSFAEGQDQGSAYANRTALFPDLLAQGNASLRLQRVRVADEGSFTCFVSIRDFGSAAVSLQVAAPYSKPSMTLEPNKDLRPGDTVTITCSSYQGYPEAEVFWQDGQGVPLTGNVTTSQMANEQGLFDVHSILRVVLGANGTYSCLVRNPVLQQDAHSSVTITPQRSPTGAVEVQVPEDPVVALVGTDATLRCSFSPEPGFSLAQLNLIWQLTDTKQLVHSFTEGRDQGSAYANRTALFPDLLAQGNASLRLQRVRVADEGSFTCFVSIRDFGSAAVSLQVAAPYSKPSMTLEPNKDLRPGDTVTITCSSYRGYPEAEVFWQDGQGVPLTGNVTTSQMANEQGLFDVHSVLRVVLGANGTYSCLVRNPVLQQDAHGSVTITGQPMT
Kind of experiment: ELISA on coated antigen, IgG1 antibody. How it is done: (§1) Protein binding: 100 μL of antigen B7-H3 (R&D) at 20 ng/ml was coated onto microplate, incubated at 2-8° C. overnight. Subsequently, 100 μL of the prepared full-length IgG1 antibody described above was added with a total of 8 concentrations started from 2000 ng/ml and serially diluted with 3-fold, incubating at 37° C., 600 rpm for 1 hour. After the plate was washed for three times, Goat anti human IgG (Fc)-HRP enzyme-linked antibody was added and the plate was shook at 37° C. and 600 rpm for 1 hour. After the plate was washed for 4 times, TMB chromogenic solution was aliquoted in and incubated for 10 minutes, then 1 mol/L […] stop solution at 100 μL/well was aliquoted to stop the reaction and the absorbance was measured.

Experiment [2] deals with T2, 2Ig B7-H3 (soluble human B7-H3 with 217 amino acids) (human, UniProt Q5ZPR3 29-463).
T2 construct: also called 2IgB7-H3 domain
T2 sequence: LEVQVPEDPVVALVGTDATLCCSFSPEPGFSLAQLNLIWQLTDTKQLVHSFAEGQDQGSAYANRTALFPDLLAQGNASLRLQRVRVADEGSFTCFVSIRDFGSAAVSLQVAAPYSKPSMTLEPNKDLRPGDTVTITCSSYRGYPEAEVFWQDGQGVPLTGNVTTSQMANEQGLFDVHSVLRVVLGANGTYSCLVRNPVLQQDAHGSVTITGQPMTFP
Kind of experiment: ELISA on coated antigen, IgG1 antibody. How it is done: as §1

In a further experiment the target is T3, IgC domain of B7-H3 (human, UniProt Q5ZPR3 141-242).
T3 sequence: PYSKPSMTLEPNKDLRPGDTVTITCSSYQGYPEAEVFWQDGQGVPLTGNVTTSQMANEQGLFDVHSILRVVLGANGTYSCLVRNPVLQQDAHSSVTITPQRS
Briefly: ELISA on coated antigen, IgG1 antibody. As for the experimental part:
as §1
A general note: In an ELISA, binding on a coated surface is turned into a signal by an enzyme label.

Experiment [3] has as its target T4, IgV domain of B7-H3 (human, UniProt Q5ZPR3 30-130).
T4 sequence: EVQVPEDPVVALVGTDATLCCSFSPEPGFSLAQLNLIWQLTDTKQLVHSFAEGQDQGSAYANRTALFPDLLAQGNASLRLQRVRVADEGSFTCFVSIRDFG
Kind of experiment: ELISA on coated antigen, IgG1 antibody. As for the experimental part:
as §1

Experiment [4] addresses T1, 4Ig B7-H3 (soluble human B7-H3 protein …). Kind of experiment: SPR, BIAcore T200, antibody amine-coupled to the chip, antigen as analyte, 1:1 Langmuir fit. How it is done:
SPR detection was performed with BIAcore T200 (GE) system. Series Sensor Chip CMS and the amine coupling kit for immobilization were purchased from GE.
The B7-H3 antigen was diluted with HBS-EP buffer in a certain proportion to concentration gradients of 0 nM, 0.15625 nM, 0.3125 nM, 0.625 nM, 1.25 nM (two replicates), 2.5 nM, 5 nM, 10 nM, 20 nM, the flow rate was set to 30 μL/min, the binding time was set to 120 s, and the dissociation time was set to 1800 s for sample analysis. For regeneration, Gly-HCl buffer (pH 1.5) could be used as a regeneration buffer, the flow rate was set to 30 μL/min, and regeneration was performed for 30 s. The experiment adopted multi-cycle operation, for the response signal, the analysis time was set as the abscissa and the response value was set as the ordinate. The obtained data was fitted by BIAcore T200 analysis software. The fitting model used was 1:1 Langmuir binding model, and the kinetic constants such as the binding rate constant, the dissociation rate constant, and the binding and dissociation constant were determined.
(Surface plasmon resonance follows binding to a sensor surface in real time, without labels.)

Experiment [5] has as its target T4, IgV domain of B7-H3. Briefly: ELISA on B7-H3 domains, IgG1 antibody. How it is done:
as §1

Experiment [6] deals with T5, B7-H3 on B7-H3 transfected CHO cells.
T5 construct: whole, on cells; also called CHO cells transfected with B7-H3
T5 sequence (Q5ZPR3 1-534, species assumed, looked up): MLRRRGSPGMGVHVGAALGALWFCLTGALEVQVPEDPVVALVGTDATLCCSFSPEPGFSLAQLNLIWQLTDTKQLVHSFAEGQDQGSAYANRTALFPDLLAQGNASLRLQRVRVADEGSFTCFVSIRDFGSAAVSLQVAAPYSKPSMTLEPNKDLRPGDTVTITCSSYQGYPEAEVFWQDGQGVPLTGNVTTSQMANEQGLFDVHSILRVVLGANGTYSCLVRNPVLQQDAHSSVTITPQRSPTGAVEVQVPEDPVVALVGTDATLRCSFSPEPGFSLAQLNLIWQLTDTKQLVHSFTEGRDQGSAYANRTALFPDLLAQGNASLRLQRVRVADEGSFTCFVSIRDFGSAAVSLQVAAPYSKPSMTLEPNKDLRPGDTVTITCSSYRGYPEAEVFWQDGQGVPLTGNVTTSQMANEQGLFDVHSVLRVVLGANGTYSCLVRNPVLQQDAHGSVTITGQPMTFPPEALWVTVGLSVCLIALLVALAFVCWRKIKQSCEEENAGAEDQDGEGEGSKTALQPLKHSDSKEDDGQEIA
Briefly: cell-based ELISA on B7-H3 transfected CHO-K1 cells.

The target in a further experiment is T6, antigen B7-H3 (R&D).
T6 construct: construct not described; also called B7-H3 protein; coated B7-H3 protein
T6 sequence (Q5ZPR3 whole entry, species assumed, looked up): T5 sequence (Q5ZPR3 1-534, species assumed, looked up)
Briefly: ELISA on coated B7-H3. As for the experimental part:
as §1

B1: P1G2 full-length IgG1 antibody (antibody, V domains shown)
VH: QVQLQQSGAEVKKPGSSVKVSCKASGGTFSSYAISWVRQAPGQGLEWMGRIIPILGIANYAQKFQGRVTITADKSTSTAYMELSSLRSEDTAVYYCAVNYYDSSGYYSDYWGQGTLVTVSS
VL: SYELTQPPSASGSPGQSVTISCTGTSSDVGGYNYVSWYQQHPGKAPRLMIYGVSQRPSGVPDRFSGSKSGNTASLTVSGLQAEDEADYYCSSYANNNYVFGTGTKVTVL
In general, Kd refers to the equilibrium constant for the complex coming apart. A higher Kd goes with a looser complex. Usually koff stands for the first-order rate constant of dissociation. A higher koff goes with a short-lived complex. For orientation: kon means the second-order rate constant of association. Read a low kon as slow association. For the molecule B1, the ELISA signal value in experiment [1] is 1.6 to 3 elisasignalvalue; in experiment [2] it was 0.6 to 1.5 elisasignalvalue; with IgC domain of B7-H3 it was 0.3 to 0.5 elisasignalvalue; with IgV domain of B7-H3 [3], 0.3 to 0.5 elisasignalvalue. In experiment [4], this molecule displayed a Kd of 230 pM. The molecule also displayed a koff in experiment [4] of 0.00167 s⁻¹. Moreover, the kon in experiment [4] is 7.26e+06 M⁻¹ s⁻¹.

B2: P1E11 full-length IgG1 antibody (antibody, V domains shown)
VH: not shown
VL: EIVLTQSPLSLPVTLGQPASISCRSSQSLVHSDGNTYLNWFQQRPGQSPRRLIYKVSNRDSGVPDRFSGSGSGTDFTLKISRVEAEDVGFYYCMQGTHWPPGTFGQGTKLEIK
notes: also called biotin-P1E11
B2: in the experiment with IgV domain of B7-H3 [5], the binding result is reported as “no binding (tested: ELISA signal value 0.1~0.2)”. The molecule also came in with an ELISA signal value in experiment [2] of 1.6 to 3 elisasignalvalue. In addition, the ELISA signal value with IgC domain of B7-H3 was in the range of 0.6 to 1.5 elisasignalvalue. Besides, in experiment [4], the Kd came to 24.8 pM, the koff turned out to be 7.76e-05 s⁻¹ and the kon worked out at 3.13e+06 M⁻¹ s⁻¹.

B3: P2E5 full-length IgG1 antibody (antibody, V domains shown)
VH: QVTLKESGGGLVQPGGSLRLSCAASGFTFSNSYMTWVRQAPGMGLEWVASMKPDGSVKHYVDSVKGRFTISRDNTKNSLDLQMNSLRAEDTAVYYCSSYDTRWGWFDPWGEGTLVTVSS
VL: QTVVTQEPSFSVSPGGTVTLTCGLNSGSVSTSYFPSWYQQTPGQAPRTLIYNTNTRSSGVPDRFSGSILGNKAALTITGAQADDESDYYCLLYMDSGPHWVFGGGTKLTVL
notes: also called biotin-P2E5
Broadly, the EC50 (read off the curve) is the midpoint of the concentration-response curve. A higher EC50 (read off the curve) goes with lower potency in that assay. B3: the ELISA signal value in experiment [1] lay within 0.6 to 1.5 elisasignalvalue; in experiment [2], 0.3 to 0.5 elisasignalvalue; with IgC domain of B7-H3, 0.3 to 0.5 elisasignalvalue; in the experiment with IgV domain of B7-H3 [3], 0.3 to 0.5 elisasignalvalue. Also, the “EC50 (read off the curve)” value in experiment [6] is approximately 0.02 µg/mL. Moreover, binding in experiment [4] was put at a Kd of 2400 pM. The koff in experiment [4] came out at 5.9e-05 s⁻¹. Besides, the kon in experiment [4] came to 42500 M⁻¹ s⁻¹.

B4: P3H6 full-length IgG1 antibody (antibody, V domains shown)
VH: QVQLVQSGAEVKKPGESLKISCKGSGYSFSNYWIGWVRQMPGKGLEWMGIIYPGDSDTRYSPSFQGQVTISADKSISTAYLQWSSLKASDTAMYYCARSRGYPTNYMDVWGRGTTVTVSS
VL: QAVLTQPPSVSGAPRQRVTISCSGSSSNIGNNIVSWYQHLPGKAPRLLIYRERQRPSGVPDRFSGSKSGTSASLAISGLRSEDEADYYCATWDDSLNSWVFGGGTKLTVL
As to B4, in the experiment with antigen B7-H3 (R&D), the “EC50 (read off the curve)” value was approximately 0.1 µg/mL. The same molecule returned an ELISA signal value with IgV domain of B7-H3 [3] of 1.6 to 3 elisasignalvalue.
